The text below walks through data of patent US20260167677A1 (Memorial Sloan Kettering, published 2026).

The target in assay [1] is T1, ADAM10 D+C domains construct (species not stated) (Bos taurus (Bovine), UniProt Q10741 455-646).
T1 construct: also called ADAM10 D+C antigen; isolated recombinant ADAM10 D+C region
T1 sequence: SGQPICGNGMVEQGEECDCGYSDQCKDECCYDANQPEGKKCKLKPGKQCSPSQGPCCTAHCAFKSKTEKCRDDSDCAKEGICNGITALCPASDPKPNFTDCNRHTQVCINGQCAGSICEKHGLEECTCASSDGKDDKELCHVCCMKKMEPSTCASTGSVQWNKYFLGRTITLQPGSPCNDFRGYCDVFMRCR
In words: biolayer interferometry (data not shown). A general note: In BLI a coated tip is dipped into the sample, and binding shifts an interference pattern.

Assay [2] concerns the target T2, recombinant ADAM10 ECD (species not stated).
T2 construct: extracellular domain; also called full recombinant ADAM10 ECD
In words: biolayer interferometry (data not shown).

The target of assay [3] is T3, human ADAM10 expressed on the cell surface (LIM1215, COLO205, HEK293, HEK293 transfected with full-length … (human, UniProt O14672 214-748)).
T3 construct: whole, on cells; also called tumor-expressed ADAM10; ADAM10 expressed on HEK293 cells
T3 sequence (looked up): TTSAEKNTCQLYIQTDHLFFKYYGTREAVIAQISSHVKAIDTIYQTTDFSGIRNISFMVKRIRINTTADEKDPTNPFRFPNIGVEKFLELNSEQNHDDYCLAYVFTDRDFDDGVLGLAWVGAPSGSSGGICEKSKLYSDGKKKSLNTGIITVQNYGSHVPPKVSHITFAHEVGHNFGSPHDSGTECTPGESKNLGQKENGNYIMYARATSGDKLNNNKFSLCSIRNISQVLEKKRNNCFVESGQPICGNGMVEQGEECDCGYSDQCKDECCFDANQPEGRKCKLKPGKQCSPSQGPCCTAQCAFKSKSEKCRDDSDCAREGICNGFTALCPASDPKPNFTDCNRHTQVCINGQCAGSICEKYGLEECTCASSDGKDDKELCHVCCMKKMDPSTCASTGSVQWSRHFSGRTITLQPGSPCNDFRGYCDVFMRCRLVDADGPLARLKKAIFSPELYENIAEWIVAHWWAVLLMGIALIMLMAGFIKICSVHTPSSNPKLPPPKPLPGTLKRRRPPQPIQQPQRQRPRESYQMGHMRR
The assay can be described thus: cell-based ELISA, 1H5 signal normalised to mAb1427 signal. The protocol: Briefly, 5×10⁴ cells/well were immobilized on 96-well ELISA plates (Greiner bio-one) with 1% paraformaldehyde for 2 hours at 37° C. The plate was washed thrice with PBS and blocked for 2 hours at room temperature with 4% non-fat dry milk. The anti-ADAM10 mAbs were added in varying concentrations. […] The data was recorded at 450 nm.
For orientation: In an ELISA, binding on a coated surface is turned into a signal by an enzyme label.

Assay [4] addresses T2, recombinant ADAM10 ECD (species not …). The assay can be described thus: cell-based or functional assay.
The target in assay [5] is T4, human ADAM10 D+C (455-650) (human, UniProt O14672 455-650).
T4 construct: range 455-650; also called human (h) ADAM10 D+C; human (h) ADAM10 D-C
T4 sequence (looked up): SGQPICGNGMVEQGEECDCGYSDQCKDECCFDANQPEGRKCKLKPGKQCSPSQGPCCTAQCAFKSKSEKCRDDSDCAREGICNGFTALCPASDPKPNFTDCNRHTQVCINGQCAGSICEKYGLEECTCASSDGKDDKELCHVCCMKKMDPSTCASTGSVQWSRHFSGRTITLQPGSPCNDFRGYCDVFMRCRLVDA
The assay can be described thus: ELISA, 1H5 IgG titrated on immobilised human ADAM10 D+C, absorbance 450 nm [cont.) E].

Assay [6] addresses T5, bovine ADAM10 disintegrin+cysteine-rich domain construct (D+C, residues 455-646) (bovine, UniProt Q10741 455-646).
T5 construct: range 455-646; also called ADAM10 D+C (b); bovine (b) ADAM10 D+C
T5 sequence (looked up): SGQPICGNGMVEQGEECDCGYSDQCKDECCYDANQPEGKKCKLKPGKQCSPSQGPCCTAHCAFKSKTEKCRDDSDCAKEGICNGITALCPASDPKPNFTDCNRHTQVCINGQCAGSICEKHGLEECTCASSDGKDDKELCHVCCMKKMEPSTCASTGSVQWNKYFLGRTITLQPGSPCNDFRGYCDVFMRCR
The assay can be described thus: ELISA, 1H5 IgG titrated on immobilised bovine ADAM10 D+C, absorbance 450 nm [cont.) E].

Assay [7] concerns the target T1, ADAM10 D+C domains construct (species …). In words: ELISA, 1H5 Fab titrated on ADAM10 D+C, absorbance 450 nm. Here is the method: To perform the competitive ELISA, wells were coated with 100 μl of ADAM10 D+C (concentration 2 μg/ml). After washes with phosphate buffer solution (PBS), the wells were blocked with 4% non-fat dry milk. […] Color was developed using a TMB substrate kit and data was recorded at 450 nm. […] The final concentration of each mAb in the mixture was the same as when added individually. The mixture was added to the wells and incubated for 1 hour.

B1: 1H5 IgG (fully human anti-ADAM10 monoclonal antibody) (antibody, V domains shown)
VH: QVQLVESGGGLVKPGGSLRLSCAASGFTFSDYYMSWIRQAPGKGLEWVSYISSSGSTIYYADSVKGRFTISRDNAKNSLYLQMNSLRAEDTAVYYCARDFYDSKIFDYWGQGTLVTVSS
VL: DIQMTQSPSSLSASVGDRVTITCRASQSISSYLNWYQQKPGKAPKLLIYAASSLQSGVPSRFSGSGSGTDFTLTISSLQPEDVGVYYCMEGLKTPFTFGPGTKLEIKR
notes: the amino acid entries 14 and 15 are used here; also called 1H5 mAb; mAb 1H5
As a reminder, the Kd is a measure of binding affinity in units of concentration. One may read the EC50 (read off the curve) as the concentration that produces a half-maximal response. Read a low EC50 (read off the curve) as a more potent agent. Turning to B1, the figures for the Kd in assay [1] and in assay [2] were 3.3 nM and approximately 200 nM, respectively. Further, the “fold better binding to tumor-expressed ADAM10 than to ADAM10 expressed on HEK293 cells” value in assay [3] is approximately 14 fold. For the same molecule, in assay [4], the “augmentation of fluorogenic substrate peptide cleavage, relative to 8C7” value is approximately 2 fold. Besides, the “EC50 (read off the curve)” value in assay [5] and in assay [6] was approximately 3 nM throughout.

B2: 1H5 Fab (Fab, V domains shown)
VH: QVQLVESGGGLVKPGGSLRLSCAASGFTFSDYYMSWIRQAPGKGLEWVSYISSSGSTIYYADSVKGRFTISRDNAKNSLYLQMNSLRAEDTAVYYCARDFYDSKIFDYWGQGTLVTVSS
VL: DIQMTQSPSSLSASVGDRVTITCRASQSISSYLNWYQQKPGKAPKLLIYAASSLQSGVPSRFSGSGSGTDFTLTISSLQPEDVGVYYCMEGLKTPFTFGPGTKLEIKR
notes: also called 1H5 Fab fragment; Fab fragment of 1H5
The EC50 is the concentration giving half of the maximal effect. Regarding B2, a half-maximal response in assay [7] (EC50) required 15 nM.
